Experimental data reported in the RNAGym collection of RNA variant scans (doi:10.1073/pnas.2313332121).

B1: TPR t1 (parent)
chain: GACCAAUCUGCCCUCAGAGCUCGAGAACAUCUUCGGAUGCAGAGGAGGCAGGCUUCGGUGGCGCGAUAGCGCCAACGUCCUCAACCUCCAAUGCAUCCCACCACAUGAUGAUGCCUGAAGAGCCUUGGUUUUUUG

Variants of: B1
Test: polymerase ribozyme fitness, log enrichment relative to wild type (log ratio); higher = more active; in vitro selection for triplet polymerase activity
Summary of the method: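 Each subunit of a heterodimeric triplet polymerase ribozyme was represented by a PCR-built, transcribed mutant library that underwent triplicate single-round in vitro selection with frozen incubation at −7 °C. Extended constructs were recovered by gel excision, streptavidin-bead capture and RT-PCR, and Illumina sequencing of input and output libraries kept genotypes with ≥10 input reads and ≥1 read per output. Fitness is the logarithm of genotype enrichment relative to wild-type enrichment, from inverse-variance-weighted replicate averages, with a logarithm base of 2.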

Variant | polymerase ribozyme fitness (log ratio)
GACCAAUCUGCCCUCAGAGCUCGAGAACAUCUUCGGAUGCAGAGGAGGCAGGCUUCGGUGGCGCGAUAGAGCCAACGUCCUCAAUCUUCAAUGCAUCCCACCACAUGAUGAUGCCUGAAGAUCGUUGGUUUUUUG [C70A C85U C88U G122U C124G] | -2.37
GACCAAUCUGCCCUCAGAGCUCGAGAACAUCUUCGGAUGCAGAGGAGGCAGGCUUCGGUGGCGCGAUAGAGCCAACGUCCUUACCCCCCAAUGCAUCCCACCACAUGAUGAUGCCAGAAGAGGCUUGGUUCUUUG [C70A C82U A84C U87C U116A C123G U131C] | -1.57
GACCAAUCUGCCCUCAGAGCUCGAGAACAUCUUCGGAUGCAGAGGAGGCAGGCUUCGGUGGCGCGAUAGAGCUAACGUCCUCAACCUCCAAUGCAUCCUACCACAUUACGAUGCCUUAAGAGCCUUGGUUUUUUG [C70A C73U C99U G107U U109C G117U] | -6.35
GACCAAUCUGCCCUCAGAGCUCGAGAACAUCUUCGGAUGCAGAGGAGGCAGGCUUCGGUGGCGCGAUAUCGCCAACGUCCUCAACCUCCAAUGCAUCCCACCACAUGAUGAUGCCUGAAGAGCCUUGGAUUUUUG [G69U U129A] | -0.546
GACCAAUCUGCCCUCAGAGCUCGAGAACAUCUUCGGAUGCAGAGGAGGCAGGCUUCGGUGGCGCGAUAUCGCCAACGUCCUCAACCUCCAAUGCAUCCCACCACAUGAUGAUGCCUGAAGAGCCUUGGUUAUUUG [G69U U131A] | -0.175
GACCAAUCUGCCCUCAGAGCUCGAGAACAUCUUCGGAUGCAGAGGAGGCAGGCUUCGGUGGCGCGAUAUCGCCAACGUCCUCAACCUCCAAUGCAUCCCACCACAUGAUGAGGCCUGAAGAGCCUUGGUUUUUUG [G69U U112G] | 0.676
GACCAAUCUGCCCUCAGAGCUCGAGAACAUCUUCGGAUGCAGAGGAGGCAGGCUUCGGUGGCGCGAUAUCGCCAACGUCCUCAACCUCCAAUGCAUCCCACCACAUGAUGAGGCCUGAAGAGCCAUGGUUUUUUG [G69U U112G U125A] | 1.09
GACCAAUCUGCCCUCAGAGCUCGAGAACAUCUUCGGAUGCAGAGGAGGCAGGCUUCGGUGGCGCGAUAGAGGCAACGUCCUCAACCUCCAAUGCAUCCCACCACAUGAUGAUGCCUGAAGAGCCUUGGUUUUUUG [C70A C72G] | -4.19
GACCAAUCUGCCCUCAGAGCUCGAGAACAUCUUCGGAUGCAGAGGAGGCAGGCUUCGGUGGCGCGAUAGAGCCAACGUCCUCAACCUCCAAUGCAUCCUACCACAUGAAGAUGCCUGAAGAGCCUUGGUUUUUUG [C70A C99U U109A] | -6.83
GACCAAUCUGCCCUCAGAGCUCGAGAACAUCUUCGGAUGCAGAGGAGGCAGGCUUCGGUGGCGCGAUAGAGCCAACGUCCUCAACCUCCAAUGCAUCCCACCACAUGAUGAUGCCUGAAGAGCCUUGGUUUUUUG [C70A] | -1.51
GACCAAUCUGCCCUCAGAGCUCGAGAACAUCUUCGGAUGCAGAGGAGGCAGGCUUCGGUGGCGCGAUAGAGCCAACGUCCUCAACAUCCAAUGCAUCCCACCACAUGAUGAUACCUGAAGAGGCUUGGUUUUUUG [C70A C86A G113A C123G] | -2.59
GACCAAUCUGCCCUCAGAGCUCGAGAACAUCUUCGGAUGCAGAGGAGGCAGGCUUCGGUGGCGCGAUAUCGCCAACGUCCUCAACCUCCAAUGCAUCCCACCACAUGAUGAUGCCGGAAGAGCCUUGGUUUUUUG [G69U U116G] | -2.69
GACCAAUCUGCCCUCAGAGCUCGAGAACAUCUUCGGAUGCAGAGGAGGCAGGCUUCGGUGGCGCGAUAUCGCCAACGUCCUCAACCUCCAAUGCAUCCCACCACAUGAUGAUGCCCGAAGAGCCUUGGUUUUUUG [G69U U116C] | 0.102
GACCAAUCUGCCCUCAGAGCUCGAGAACAUCUUCGGAUGCAGAGGAGGCAGGCUUCGGUGGCGCGAUAGAGCCAACGUCCUCAACCUCCAAUGCAUCCCACCACAUGAUGUUGCCUGAAGUGCCUUGGUUUUUUG [C70A A111U A121U] | -5.08
GACCAAUCUGCCCUCAGAGCUCGAGAACAUCUUCGGAUGCAGAGGAGGCAGGCUUCGGUGGCGCGAUAGAGCCAACGUCCUCAACUUCCAAUGCAUCCCACCACAUGAUGAUGCCUGAAGAGCCUUGGUUUUUUG [C70A C86U] | -1.81
GACCAAUCUGCCCUCAGAGCUCGAGAACAUCUUCGGAUGCAGAGGAGGCAGGCUUCGGUGGCGCGAUAGAGUCAACGUCCUCAACCUCCAAUGCAUCCCAACACAUGAUGAUGCCUGAAGAGCCUUGGUUUUUUG [C70A C72U C101A] | -2.45
GACCAAUCUGCCCUCAGAGCUCGAGAACAUCUUCGGAUGCAGAGGAGGCAGGCUUCGGUGGCGCGAUAGAGCCAACGUCCUCAACCUCCAAUGCAUCCCACCACAUGUUGAUGCCUGAAGAGCAUUGGUUUUUUG [C70A A108U C124A] | -5.58
GACCAAUCUGCCCUCAGAGCUCGAGAACAUCUUCGGAUGCAGAGGAGGCAGGCUUCGGUGGCGCGAUAGAGCCAACGUCCUCAACCUCCAAUGCGUCCCACCACAUGAUGAUGCCUGAAGAGCCUUGGUUUUUUG [C70A A95G] | -1.6
GACCAAUCUGCCCUCAGAGCUCGAGAACAUCUUCGGAUGCAGAGGAGGCAGGCUUCGGUGGCGCGAUAGAGCCAACGUCCUCUACCUCCAAUGCAUCCCACCACAUGAUGAUGCCUGAAGAGCCUUGGUUUUUUG [C70A A83U] | -2.44
GACCAAUCUGCCCUCAGAGCUCGAGAACAUCUUCGGAUGCAGAGGAGGCAGGCUUCGGUGGCGCGAUAGAGCCAACGUCCUCAACCUCAAAUGCAUCCCACCAUAUGAUGUUACCUGAAGAGCCUUCGUUUUUUG [C70A C89A C104U A111U G113A G127C] | -6.35
GACCAAUCUGCCCUCAGAGCUCGAGAACAUCUUCGGAUGCAGAGGAGGCAGGCUUCGGUGGCGCGAUAGAGCCAACAUCCUCAACCUCCAAUGCAUACCACCACAUGAUGAUGCCUGAAGUGCCUUGGUUUUUUG [C70A G77A C97A A121U] | -5.66
